Reference: patent publication US6852907

Target: T1, BV1 movement protein, untagged (tomato leaf curl virus (New Delhi)) (UniProt A0A143TU21)
T1 sequence: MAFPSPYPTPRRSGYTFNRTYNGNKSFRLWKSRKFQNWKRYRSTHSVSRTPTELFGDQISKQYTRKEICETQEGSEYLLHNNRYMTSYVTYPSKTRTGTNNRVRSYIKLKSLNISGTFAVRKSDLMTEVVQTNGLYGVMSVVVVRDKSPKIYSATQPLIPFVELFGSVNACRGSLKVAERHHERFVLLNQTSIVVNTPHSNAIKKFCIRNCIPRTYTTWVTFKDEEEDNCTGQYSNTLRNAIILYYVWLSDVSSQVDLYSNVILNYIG
Experiment: cell_activity
Details: ssDNA accumulation in BY2 protoplasts (indirect), range 50-121

Substance: ToLCV-Nde A component viral ssDNA (CP-replacement constructs)
- binding signal (% of wild type ssDNA): 86
